Test system: MS2 coat protein
Experiment: apparent KD of MS2 coat protein; designed switch direction (-1 OFF switch, 1 ON switch): -1; higher = weaker reporter binding
Method in brief: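 Designed RNA switches were transcribed on Illumina chips by stalled E. coli RNA polymerase and titrated with SNAP-549-labelled MS2 coat protein from 0.7 or 1.5 nM, doubling to 3 µM. Step length ran from 0.8–1.5 h at the lowest concentration to 10–20 min at the highest. The apparent KD is the median over clusters for each design, from curve-fitted normalised cluster fluorescence.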

[1] = input ligand: microRNA oligo, concentration not stated

Sequence	apparent KD of MS2 coat protein (input ligand: FMN 200 uM)	apparent KD of MS2 coat protein (input ligand: none)	apparent KD of MS2 coat protein (Eterna round: R95, input ligand: FMN 200 uM)	apparent KD of MS2 coat protein (Eterna round: R95, input ligand: microRNA oligo, concentration not stated)	apparent KD of MS2 coat protein (Eterna round: R95, input ligand: none)	apparent KD of MS2 coat protein [1]
GCAAGCUUUUGCUCGUCUUACAUGAGGAUCACCCAUGUCGGGUGCUUGCUUCGGGCCCGGGCCUCCCGGGCCCGGGC [-43.3, -67 kcal, A 10%] (Eterna round: R97, puzzle: Sensor, turn-off variant 1)	0.0618 µM	0.0663 µM	–	–	–	–
GCAAGUUUUUUGUUUUUUAACAUGAGGAUCACCCAUGUGCGGUUAUAGUGUGUGUGAUUAGGAUCUUGUGGUCUUAG [JR_SV3TOV1_Sub102] (puzzle: Sensor v3, turn-off variant 1)	–	–	0.0678 µM	0.123 µM	0.0989 µM	–
GCACAUGCAGGAUAUGUAAAAUUUGACAUGAGGAUCACCCAUGUAGAUCCUGAAUUUCCUGCAGAAGGGCAUGUGC [Mat - Exclusion 5 - Eli Mod - D17] (Eterna round: R97, puzzle: Exclusion 5)	0.345 µM	0.0988 µM	–	–	–	–
GCACGAAGUGUAGGAUAUCUGUGCGAUUAGCUCAGAGAAGGACACAUGAGGAUCACCCAUGUUUUCCACGGAUAGCAAACGUGC [Eli exng1 - 059] (Eterna round: R96, puzzle: Exclusion NG 1)	0.021 µM	0.0196 µM	–	–	–	0.0144 µM
GCACGCAGUGUUAGGAUAUUAAUGGCACCGCAACGUAAGAAGGAACAUGAGGAUCACCCAUGUGUGCUAGAGAA [Eternabot (Original) Solution 14] (Eterna round: R97, puzzle: Brourd's mod of Exclusion 4)	0.0301 µM	0.0295 µM	–	–	–	–
GCACGGAGUGUAGGAUAUCUGUGCGAUUAGCUCAGAGAAGGACAUGAGGAUCACCCAUGUGUGUUCCAAACACAAAAUCCGUGC [Eli exng1 - 065] (Eterna round: R96, puzzle: Exclusion NG 1)	0.0472 µM	0.018 µM	–	–	–	0.0128 µM
GCACGGAGUGUAGGAUAUUAGUGCGAUUAGCACUGAGAAGGACAUGAGGAUCACCCAUGUUCCUCAAUAAUUAACCUUCCGUGC [Eli exng1 - 039] (Eterna round: R96, puzzle: Exclusion NG 1)	0.0167 µM	0.0129 µM	–	–	–	0.00849 µM
GCACGGUAAUUCCAUAAAACCACAUGAGGAUCACCCAUGUCUCAGGAUAUGGUCUGGAUUACAGGCCAGAAGGGAGAGCCGUGC [Eli exng3 - 060] (Eterna round: R96, puzzle: Exclusion NG 3)	0.0104 µM	0.0133 µM	–	–	–	0.00888 µM
GCACGGUUGGUAGGAUAUCAUUGCGAUUAGCUAUGAGAAGGACCACAUGAGGAUCACCCAUGUCCUCUAAUUAGCCUACCGUGC [Eli exng1 - 015] (Eterna round: R96, puzzle: Exclusion NG 1)	0.383 µM	0.151 µM	–	–	–	0.109 µM
GCACUCUGCUGGCAGUCGGCUUGUCUUAGAAGGAUAGAUACAUGAGGAUCACCCAUGUUUCGGGUGUCAAUUCUAGC [JR_Sensorv2_tov2_Sub1308] (Eterna round: R96, puzzle: Sensor v2, turn-off variant 2)	0.0439 µM	0.0426 µM	–	–	–	0.0345 µM
GCACUGACAGGAUAUACAUGAGGAUCACCCAUGUGACCCUUAUAGUACUCGCGUACAAGUAGAAGGGUCUGUGC [Omei Ex3 Model Bachelor's Dilema v31] (Eterna round: R97, puzzle: Exclusion 3)	0.382 µM	0.107 µM	–	–	–	–
GCACUGCGAGGAUAUACAUGAGGAUCACCCAUGUGUCCGCAGCGAUGCGAGUACAAAUGUAGAAGGCGCGUAAA [EX3 #57] (Eterna round: R97, puzzle: Exclusion 3)	0.0341 µM	0.0143 µM	–	–	–	–
GCAGAAAGUGUAGGAUAUAUAAUAAAGCGGAAACGCAAGACAUGAGGAUCACCCAUGUGUCCGGAAUAGAAGGGCAAAAGCUGC [EXNG2 V2 b] (Eterna round: R96, puzzle: Exclusion NG 2)	0.0291 µM	0.0294 µM	–	–	–	0.0199 µM
GCAGAUCAAGUGAGGAUAUGCUCUACCUCGGUAGAGCAGAAGGCACAUGAGGAUCACCCAUGUGAUUGAUCUGC [Omei Ex4B B5] (Eterna round: R97, puzzle: Brourd's mod of Exclusion 4)	0.0269 µM	0.0195 µM	–	–	–	–
GCAGCAAAUUCCACUAAAAUCACAUGAGGAUCACCCAUGUCUCAGGAUAUGGUCUGGAUUACAGGCCAGAAGGGAGAAAGCUGC [Eli exng3 - 057] (Eterna round: R96, puzzle: Exclusion NG 3)	0.0258 µM	0.0276 µM	–	–	–	0.0236 µM
GCAGCAACUCUAACUAACUAAACAUGAGGAUCACCCAUGUCUCAGGAUAUGGUCUGGAUUACAGGCCAGAAGGGAGAAAGCUGC [Eli exng3 - 039] (Eterna round: R96, puzzle: Exclusion NG 3)	0.0126 µM	0.0145 µM	–	–	–	0.0109 µM
GCAGCAACUCUAAUCAAACUAACAUGAGGAUCACCCAUGUCUCAGGAUAUGGUCUGGAUUACAGGCCAGAAGGGAGAAAGCUGC [Eli exng3 - 049] (Eterna round: R96, puzzle: Exclusion NG 3)	0.00904 µM	0.0148 µM	–	–	–	0.0104 µM
GCAGCAUAGAUGAAAGUCUGAUACAUGAGGAUCACCCAUGUACAGGAUAUGGUCUGGAUUACAGGCCAGAAGGGUACAAGCUGC [Eli exng3 - 013] (Eterna round: R96, puzzle: Exclusion NG 3)	0.0144 µM	0.0128 µM	–	–	–	0.0106 µM
GCAGCAUAGUGUAAUAAACACAUACAUGAGGAUCACCCAUGUGAGGAUAUGGACUGGAUUACAGUCCAGAAGGCACAAAGCUGC [Zipper Style 1] (Eterna round: R96, puzzle: Exclusion NG 3)	0.0187 µM	0.0178 µM	–	–	–	0.0159 µM
GCAGCAUAGUUAACAGACUGUUACAUGAGGAUCACCCAUGUACAGGAUAUGGUCUGGAUUACAGGCCAGAAGGGUACAAGCUGC [Eli exng3 - 019] (Eterna round: R96, puzzle: Exclusion NG 3)	0.0101 µM	0.0116 µM	–	–	–	0.00894 µM
GCAGCAUAGUUUACUAACUGUUACAUGAGGAUCACCCAUGUUCAGGAUAUGGUCUGGAUUACAGGCCAGAAGGGAACAAGCUGC [Eli exng3 - 026] (Eterna round: R96, puzzle: Exclusion NG 3)	0.00764 µM	0.0113 µM	–	–	–	0.00842 µM
GCAGCAUAGUUUACUAGCUGUUACAUGAGGAUCACCCAUGUUCAGGAUAUGGUCUGGAUUACAGGCCAGAAGGGAACAAGCUGC [Eli exng3 - 029] (Eterna round: R96, puzzle: Exclusion NG 3)	–	–	–	–	–	0.00799 µM
GCAGCAUAGUUUACUGACUGUUACAUGAGGAUCACCCAUGUUCAGGAUAUGGUCUGGAUUACAGGCCAGAAGGGAACAAGCUGC [Eli exng3 - 030] (Eterna round: R96, puzzle: Exclusion NG 3)	0.00917 µM	0.0106 µM	–	–	–	0.0109 µM
GCAGCGUAUGUAGGAUAUCGGUCAGUUUCUGAUCGAGAAGGACAUGAGGAUCACCCAUGUAAAUUACCGACUUUGUCGGGCUGC [JL ENG1 3.67] (Eterna round: R96, puzzle: Exclusion NG 1)	0.0163 µM	0.0163 µM	–	–	–	0.0147 µM
GCAGCUAAUCGAGGAUAUCAGCACGAUUAGUGCUGAGAAGGCGACAUGAGGAUCACCCAUGUGAUCAAUUAAUAUUAAUGCUGC [ENG1/11-A1] (Eterna round: R96, puzzle: Exclusion NG 1)	0.774 µM	0.505 µM	–	–	–	0.295 µM
GCAGCUAAUCGAGGAUAUCAGCACGUUUAGUGCUGAGAAGGCGACAUGAGGAUCACCCAUGUGAUCAAUUAAUAUUAAUGCUGC [ENG1/11-A2] (Eterna round: R96, puzzle: Exclusion NG 1)	1.27 µM	0.659 µM	–	–	–	0.344 µM
GCAGCUUAGUUAACAGACUGUUACAUGAGGAUCACCCAUGUGCAGGAUAUGGUCUGGAUUACAGGCCAGAAGGGUACAAGCUGC [Eli exng3 - 016] (Eterna round: R96, puzzle: Exclusion NG 3)	0.0128 µM	0.0142 µM	–	–	–	0.00937 µM
